Measurements: patent US20210380680A1 (ZLLP, published 2021)

Biological target: T1, human Claudin 18.2 (CLDN18.2) (human, UniProt P56856-2 1-261)
T1 construct: whole, on cells; recombinantly expressed on CHO, HEK293, NCI-N87, NUGC4 or PANC-1 cells; also called CHO-CLDN18.2
Experiment: FACS on CHO-CLDN18.2 cells

Row | Binder | EC50
1 | 364D1A7-H2L3 (antibody, V domains shown, humanized IgG; constant regions not specified) VH: EVQLVESGGGLVQPGGSLRLSCAASGFTFSSFGMHWVRQAPGKGLEWVAYISSGSGSIYYADTVKGRFTISRDNPKNSLYLQMNSLRAEDTAVYYCATSYYYGNALEYWGQGTTVTVSS VL: DVVLTQSPDSLAVSLGERATINCKSSQSLFNVGNQKNYLTWYQQKPGQTPKLLIYWASTRKSGVPDRFSGSGSGTDFTLTISSLQAEDVAVYYCQNVYSYPLTFGGGTKVEIK | 4.4 nM
2 | 364D1A7-H1L2 (antibody, V domains shown, humanized IgG; constant regions not specified) VH: EVQLVESGGGLVQPGGSLRLSCAASGFTFSSFGMHWVRQAPGKGLEWVSYISSGSGSIYYADTVKGRFTISRDNAKNSLYLQMNSLRAEDTAVYYCATSYYYGNALEYWGQGTTVTVSS VL: DIVLTQSPDSLAVSLGERATINCKSSQSLFNVGNQKNYLTWYQQKPGQTPKLLIYWASTRKSGVPDRFSGSGSGTDFTLTISSLQAEDVAVYYCQNVYSYPLTFGGGTKVEIK | 6.9 nM
3 | 364D1A7-H1L3 (antibody, V domains shown, humanized IgG; constant regions not specified) VH: EVQLVESGGGLVQPGGSLRLSCAASGFTFSSFGMHWVRQAPGKGLEWVSYISSGSGSIYYADTVKGRFTISRDNAKNSLYLQMNSLRAEDTAVYYCATSYYYGNALEYWGQGTTVTVSS VL: DVVLTQSPDSLAVSLGERATINCKSSQSLFNVGNQKNYLTWYQQKPGQTPKLLIYWASTRKSGVPDRFSGSGSGTDFTLTISSLQAEDVAVYYCQNVYSYPLTFGGGTKVEIK | 4.1 nM
4 | 364D1A7-H2L1 (antibody, V domains shown, humanized IgG; constant regions not specified) VH: EVQLVESGGGLVQPGGSLRLSCAASGFTFSSFGMHWVRQAPGKGLEWVAYISSGSGSIYYADTVKGRFTISRDNPKNSLYLQMNSLRAEDTAVYYCATSYYYGNALEYWGQGTTVTVSS VL: DIVMTQSPDSLAVSLGERATINCKSSQSLFNVGNQKNYLTWYQQKPGQPPKLLIYWASTRKSGVPDRFSGSGSGTDFTLTISSLQAEDVAVYYCQNVYSYPLTFGGGTKVEIK | 3.47 nM
5 | 364D1A7-H1L4 (antibody, V domains shown, humanized IgG; constant regions not specified) VH: EVQLVESGGGLVQPGGSLRLSCAASGFTFSSFGMHWVRQAPGKGLEWVSYISSGSGSIYYADTVKGRFTISRDNAKNSLYLQMNSLRAEDTAVYYCATSYYYGNALEYWGQGTTVTVSS VL: DVVLTQSPDSLAVSLGERATISCKSSQSLFNVGNQKNYLTWYQQKPGQTPTLLIYWASTRKSGVPDRFSGSGSGTDFTLTISSLQAEDVAVYYCQNVYSYPLTFGGGTKVEIK | 4.03 nM

The remaining lines, values ahead:

Row | EC50 | Binder
6 | 3.35 nM | 364D1A7-H2L5 (antibody, V domains shown, humanized IgG; constant regions not specified) VH: EVQLVESGGGLVQPGGSLRLSCAASGFTFSSFGMHWVRQAPGKGLEWVAYISSGSGSIYYADTVKGRFTISRDNPKNSLYLQMNSLRAEDTAVYYCATSYYYGNALEYWGQGTTVTVSS VL: DVVLTQSPDSLAVSLGERATISCKSSQSLFNVGNQKNYLTWYQQKPGQTPTLLIYWASTRKSGVPDRFTGSGSGTDFTLTISSLQAEDVAVYYCQNVYSYPLTFGAGTKVEIK
7 | 3.94 nM | 364D1A7-H2L4 (antibody, V domains shown, humanized IgG; constant regions not specified) VH: EVQLVESGGGLVQPGGSLRLSCAASGFTFSSFGMHWVRQAPGKGLEWVAYISSGSGSIYYADTVKGRFTISRDNPKNSLYLQMNSLRAEDTAVYYCATSYYYGNALEYWGQGTTVTVSS VL: DVVLTQSPDSLAVSLGERATISCKSSQSLFNVGNQKNYLTWYQQKPGQTPTLLIYWASTRKSGVPDRFSGSGSGTDFTLTISSLQAEDVAVYYCQNVYSYPLTFGGGTKVEIK
8 | 4.05 nM | 364D1A7-H3L2 (antibody, V domains shown, humanized IgG; constant regions not specified) VH: EVQLVESGGGLVQPGGSLRLSCAASGFTFSSFGMHWVRQAPGKGLEWVAYISSGSGSIYYADTVKGRFTLSRDNPKNSLYLQMNSLRAEDTAVYYCATSYYYGNALEYWGQGTTVTVSS VL: DIVLTQSPDSLAVSLGERATINCKSSQSLFNVGNQKNYLTWYQQKPGQTPKLLIYWASTRKSGVPDRFSGSGSGTDFTLTISSLQAEDVAVYYCQNVYSYPLTFGGGTKVEIK
